Legend:
[1] = biological target: T1, Drosophila Ena (overexpressed in BG2-c2 cells), Q8T4F7
T1 chain: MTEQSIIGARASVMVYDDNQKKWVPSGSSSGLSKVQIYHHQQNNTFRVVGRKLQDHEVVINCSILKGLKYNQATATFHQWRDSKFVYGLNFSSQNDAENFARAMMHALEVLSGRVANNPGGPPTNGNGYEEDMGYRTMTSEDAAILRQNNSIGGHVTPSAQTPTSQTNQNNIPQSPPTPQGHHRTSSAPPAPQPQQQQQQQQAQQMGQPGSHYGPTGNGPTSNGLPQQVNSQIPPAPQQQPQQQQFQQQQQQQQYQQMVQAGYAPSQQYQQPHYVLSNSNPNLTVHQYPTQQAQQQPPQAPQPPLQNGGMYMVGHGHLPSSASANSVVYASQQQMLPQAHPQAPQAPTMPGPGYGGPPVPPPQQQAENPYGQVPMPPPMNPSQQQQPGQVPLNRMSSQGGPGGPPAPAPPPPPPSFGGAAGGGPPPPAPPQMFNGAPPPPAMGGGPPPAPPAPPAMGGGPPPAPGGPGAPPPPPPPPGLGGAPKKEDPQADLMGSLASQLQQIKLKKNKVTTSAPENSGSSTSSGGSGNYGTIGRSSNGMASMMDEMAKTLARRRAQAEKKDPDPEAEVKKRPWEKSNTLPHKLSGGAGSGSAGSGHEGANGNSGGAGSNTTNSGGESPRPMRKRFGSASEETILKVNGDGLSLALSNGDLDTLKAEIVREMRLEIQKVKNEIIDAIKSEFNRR

[2] = biological target: Drosophila Cdk5 (endogenous, BG2-c2 neuronal cells), P48609
Sequence of Drosophila Cdk5 (endogenous, BG2-c2 neuronal cells), P48609 (P48609 whole entry): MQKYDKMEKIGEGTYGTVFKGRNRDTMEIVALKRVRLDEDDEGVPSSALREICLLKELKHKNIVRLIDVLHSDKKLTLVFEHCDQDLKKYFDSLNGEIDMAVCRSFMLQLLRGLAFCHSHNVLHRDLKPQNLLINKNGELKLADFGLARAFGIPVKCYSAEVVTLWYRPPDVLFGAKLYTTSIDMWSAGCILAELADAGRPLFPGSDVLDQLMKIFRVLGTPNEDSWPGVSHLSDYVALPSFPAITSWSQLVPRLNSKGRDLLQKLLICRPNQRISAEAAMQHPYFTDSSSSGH

B1: Drosophila Abl kinase (endogenous, BG2-c2 neuronal cells) (protein)
chain: MGAQQGKDRGAHSGGGGSGAPVSCIGLSSSPVASVSPHCISSSSGVSSAPLGGGSTLRGSRIKSSSSGVASGSGSGGGGGGSGSGLSQRSGGHKDARCNPTVGLNIFTEHNEALLQSRPLPHIPAGSTAASLLADAAELQQHQQDSGGLGLQGSSLGGGHSSTTSVFESAHRWTSKENLLAPGPEEDDPQLFVALYDFQAGGENQLSLKKGEQVRILSYNKSGEWCEAHSDSGNVGWVPSNYVTPLNSLEKHSWYHGPISRNAAEYLLSSGINGSFLVRESESSPGQRSISLRYEGRVYHYRISEDPDGKVFVTQEAKFNTLAELVHHHSVPHEGHGLITPLLYPAPKQNKPTVFPLSPEPDEWEICRTDIMMKHKLGGGQYGEVYEAVWKRYGNTVAVKTLKEDTMALKDFLEEAAIMKEMKHPNLVQLIGVCTREPPFYIITEFMSHGNLLDFLRSAGRETLDAVALLYMATQIASGMSYLESRNYIHRDLAARNCLVGDNKLVKVADFGLARLMRDDTYTAHAGAKFPIKWTAPEGLAYNKFSTKSDVWAFGVLLWEIATYGMSPYPAIDLTDVYHKLDKGYRMERPPGCPPEVYDLMRQCWQWDATDRPTFKSIHHALEHMFQESSITEAVEKQLNANATSASSSAPSTSGVATGGGATTTTAASGCASSSSATASLSLTPQMVKKGLPGGQALTPNAHHNDPHQQQASTPMSETGSTSTKLSTFSSQGKGNVQMRRTTNKQGKQAPAPPKRTSLLSSSRDSTYREEDPANARCNFIDDLSTNGLARDINSLTQRYDSETDPAADPDTDATGDSLEQSLSQVIAAPVTNKMQHSLHSGGGGGGIGPRSSQQHSSFKRPTGTPVMGNRGLETRQSKRSQLHSQAPGPGPPSTQPHHGNNGVVTSAHPITVGALDVMNVKQVVNRYGTLPKGARIGAYLDSLEDSSEAAPALPATAPSLPPANGHATPPAARLNPKASPIPPQQMIRSNSSGGVTMQNNAAASLNKLQRHRTTTEGTMMTFSSFRAGGSSSSPKRSASGVASGVQPALANLEFPPPPLDLPPPPEEFEGGPPPPPPAPESAVQAIQQHLHAQLPNNGNISNGNGTNNNDSSHNDVSNIAPSVEEASSRFGVSLRKREPSTDSCSSLGSPPEDLKEKLITEIKAAGKDTAPASHLANGSGIAVVDPVSLLVTELAESMNLPKPPPQQQQKLTNGNSTGSGFKAQLKKVEPKKMSAPMPKAEPANTIIDFKAHLRRVDKEKEPATPAPAPATVAVANNANCNTTGTLNRKEDGSKKFSQAMQKTEIKIDVTNSNVEADAGAAGEGDLGKRRSTGSINSLKKLWEQQPPAPDYATSTILQQQPSVVNGGGTPNAQLSPKYGMKSGAINTVGTLPAKLGNKQPPAAPPPPPPNCTTSNSSTTSISTSSRDCTSRQQASSTIKTSHSTQLFTDDEEQSHTEGLGSGGQGSADMTQSLYEQKPQIQQKPAVPHKPTKLTIYATPIAKLTEPASSASSTQISRESILELVGLLEGSLKHPVNAIAGSQWLQLSDKLNILHNSCVIFAENGAMPPHSKFQFRELVTRVEAQSQHLRSAGSKNVQDNERLVAEVGQSLRQISNALNR
For B1, the “tyrosine-phosphorylation level of Ena” value [1] was “Ena phosphorylation levels were elevated by Aβ42 but reduced by STI571” and the “Cdk5-Y15 phosphorylation (Cdk5-pY15) and Cdk5 kinase activity after STI571 or dsRNA-abl” value [2] was “both the Cdk5-pY15 and kinase activity were diminished”.
